According to FireProtDB (doi:10.1016/s1570-9639(02)00548-4):
Several values for one entry are separate records, joined by “and”; a condition that tells them apart may be missing. Equal entries are not always repeated.

Details: pH 6, cacodylate 0.03 M, reversible: yes; for denaturant m value / denaturant midpoint (higher = more stable) / unfolding free energy: 25 °C, GdnHCl, KCl 0.1 M
[1] = Equus caballus, Thermal, CD, KCl

Chain of Cytochrome c wild type, P62894 (P62894 whole entry): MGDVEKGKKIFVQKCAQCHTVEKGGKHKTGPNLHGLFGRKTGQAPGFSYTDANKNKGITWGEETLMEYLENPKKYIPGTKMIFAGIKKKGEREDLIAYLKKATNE
Chain of Cytochrome c wild type, P00004 (P00004 whole entry): as the sequence (P62894 whole entry) above, with S48T, G61K, G90T counted along it

Substance | denaturant m value (Equus caballus, Absorbance) | denaturant midpoint (higher = more stable) (Equus caballus, Absorbance) | unfolding free energy (Equus caballus, Absorbance) | denaturant m value (Equus caballus, CD) | denaturant midpoint (higher = more stable) (Equus caballus, CD) | unfolding free energy (Equus caballus, CD) | Tm [1] [°C] | unfolding enthalpy (van 't Hoff) [1] [kcal/mol] | denaturant m value (Bos taurus, Absorbance) [kcal/mol/M] | denaturant midpoint (higher = more stable) (Bos taurus, Absorbance) [M] | unfolding free energy (Bos taurus, Absorbance) [kcal/mol] | denaturant m value (Bos taurus, CD) | denaturant midpoint (higher = more stable) (Bos taurus, CD) | unfolding free energy (Bos taurus, CD)
Cytochrome c wild type, P00004 | 3.53 kcal/mol/M and 2.49 kcal/mol/M and 2.87 kcal/mol/M | 2.49 M and 2.35 M and 2.37 M | 8.83 kcal/mol and 6.01 kcal/mol and 6.81 kcal/mol | 2.69 kcal/mol/M and 3.48 kcal/mol/M and 3.39 kcal/mol/M | 2.5 M and 2.4 M and 2.45 M | 6.71 kcal/mol and 8.36 kcal/mol and 8.31 kcal/mol | 26.8 | 19.1 |  |  |  |  |  | 
Cytochrome c wild type, P62894 |  |  |  |  |  |  |  |  | 3.95 | 2.65 | 10.5 | 4.02 kcal/mol/M and 4.03 kcal/mol/M and 3.91 kcal/mol/M | 2.63 M and 2.61 M | 10.6 kcal/mol and 10.2 kcal/mol
